Assay results published in PMC7949130, “Defective binding of SPINK1 variants is an uncommon mechanism for impaired trypsin inhibition in chronic pancreatitis” (The Journal of Biological Chemistry, 2021).
Where a chain is given by its changes, count along the chain named. Numbers in names are those of the source.

Legend:
Details in all cases: both partners purified
[1] = target: T1, native sulfated human anionic trypsin purified from pancreatic juice (human, UniProt P07478 24-247, sulfated on Tyr154); experiment: equilibrium binding assay (free trypsin activity on a fluorogenic substrate); fixed trypsin incubated with increasing SPINK1, 0.2 ml, 0.1 M Tris-HCl (pH 8.0), 150 mM NaCl, 1 mM CaCl2, 0.05% Tween 20, 15 h; free trypsin measured with Z-Gly-Pro-Arg-AMC; apparent KD, global fit of at least three experiments
T1 construct: human anionic trypsin, the active enzyme cut from anionic trypsinogen by enteropeptidase; also called Hu2-SO4 (native); Hu2-SO4
T1 sequence (P07478 24-247): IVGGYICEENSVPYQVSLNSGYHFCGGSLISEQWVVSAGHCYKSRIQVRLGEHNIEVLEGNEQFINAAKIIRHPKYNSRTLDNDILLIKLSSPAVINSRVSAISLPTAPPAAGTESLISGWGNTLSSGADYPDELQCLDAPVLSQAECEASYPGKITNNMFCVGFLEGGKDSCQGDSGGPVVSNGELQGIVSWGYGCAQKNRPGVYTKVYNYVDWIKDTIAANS

[2] = target: T2, nonsulfated human anionic trypsin purified from E. coli (human, UniProt P07478 24-247); experiment: as above
T2 construct: human anionic trypsin, the active enzyme cut from anionic trypsinogen (Hu2) by enteropeptidase; Not sulfated on Tyr154; also called Hu2 (E. coli); Hu2
T2 sequence (P07478 24-247): as above

[3] = target: T1, native sulfated human anionic trypsin …; experiment: discontinuous association rate assay (residual trypsin activity); 50 pM trypsin mixed with 500 pM SPINK1, 0.1 M Tris-HCl (pH 8.0), 150 mM NaCl, 1 mM CaCl2, 0.05% Tween 20, 23 °C; kon from the pseudo-first-order rate constant divided by the inhibitor concentration
[4] = target: T2, nonsulfated human anionic trypsin …; experiment: as above
[5] = target: T3, nonsulfated human anionic trypsin purified from the conditioned medium of transfected HEK 293T cells (human, UniProt P07478 24-247); experiment: equilibrium binding assay (free trypsin activity on a fluorogenic substrate); fixed trypsin incubated with increasing SPINK1, 0.2 ml, 0.1 M Tris-HCl (pH 8.0), 150 mM NaCl, 1 mM CaCl2, 0.05% Tween 20, 15 h; free trypsin measured with Z-Gly-Pro-Arg-AMC; apparent KD, global fit of at least three experiments
T3 construct: human anionic trypsin, the active enzyme cut from anionic trypsinogen (Hu2) by enteropeptidase; Sulfation prevented by sodium chlorate; also called Hu2 (HEK 293T); source: HEK 293T, transfected, grown with 50 mM sodium chlorate
T3 sequence (P07478 24-247): as above

[6] = target: T4, sulfated human anionic trypsin purified from the conditioned medium of transfected HEK 293T cells (human, UniProt P07478 24-247, sulfated on Tyr154); experiment: as above
T4 construct: human anionic trypsin, the active enzyme cut from anionic trypsinogen (Hu2) by enteropeptidase; also called Hu2-SO4 (HEK 293T); source: HEK 293T, cotransfected with tyrosylprotein sulfotransferase 2
T4 sequence (P07478 24-247): as above

[7] = target: T1, native sulfated human anionic trypsin …; experiment: dissociation rate assay (recovery of trypsin activity after dilution of the complex); complex of 11 nM SPINK1 and 10 nM trypsin formed for 1 h at 23 °C, diluted to 50-200 pM with 0.6 mM Z-Gly-Pro-Arg-AMC, 0.1 M Tris-HCl (pH 8.0), 150 mM NaCl, 1 mM CaCl2, 0.05% Tween 20, room temperature, followed for 1 h
[8] = target: T2, nonsulfated human anionic trypsin …; experiment: as above
[9] = target: T1, native sulfated human anionic trypsin …; experiment: KD calculated from the rate constants (association and dissociation rate assays); KD(calc): equilibrium dissociation constant calculated from kon and koff of the activity-based rate assays
[10] = target: T2, nonsulfated human anionic trypsin …; experiment: as above
[11] = target: T1, native sulfated human anionic trypsin …; experiment: equilibrium binding assay (free trypsin activity on a fluorogenic substrate); fixed trypsin incubated with increasing SPINK1, 0.2 ml, 0.1 M Tris-HCl (pH 8.0), 150 mM NaCl, 1 mM CaCl2, 0.05% Tween 20, 15 h; free trypsin measured with Z-Gly-Pro-Arg-AMC; apparent KD, global fit of at least three experiments; remark: listed apart in the source
[12] = target: T1, native sulfated human anionic trypsin …; experiment: equilibrium binding assay (free trypsin activity on a fluorogenic substrate); as the equilibrium assay but K41N SPINK1 incubated with trypsin for 1 h; 0.1 M Tris-HCl (pH 8.0), 150 mM NaCl, 1 mM CaCl2, 0.05% Tween 20; apparent KD
[13] = target: T1, native sulfated human anionic trypsin …; experiment: equilibrium binding assay; equilibrium dissociation constant of ecotin on human trypsins, 15 h of incubation; further conditions not told for ecotin
[14] = target: T2, nonsulfated human anionic trypsin …; experiment: as above

B1: serine protease inhibitor Kazal type 1 (SPINK1), wildtype, C-terminal 10His tag (natural protein, human, UniProt P00995 24-79, looked up)
chain: DSLGREAKCYNELNGCTKIYDPVCGTDGNTYPNECVLCFENRKRQTSILIQKSGPC
notes: expressed from the SPINK1-minigene-1 construct with its own signal peptide; Residue numbers start at the initiator methionine; source: HEK 293T, transfected, purified from conditioned medium (nickel-nitrilotriacetic acid cartridge); not shown: 10His, C-terminal, kept
Binder B1 has a Kd [1] of 0.0367 nM, a Kd [2] of 0.0003 nM and a kon [3] of 2.4e+06 M⁻¹ s⁻¹. For the same binder, the kon [4] was 3.8e+06 M⁻¹ s⁻¹, the Kd [5] was 0.0005 nM and the Kd [6] was 0.009 nM. The koff [7] was 1.81e-05 s⁻¹, the koff [8] was 5e-07 s⁻¹ and the Kd [9] was 0.0075 nM. It also gave a Kd [10] of 0.0001 nM.

B2: SPINK1 variant I42M, C-terminal 10His tag (natural protein, human, UniProt P00995 24-79, looked up)
chain: B1 chain with I19M
notes: also called SPINK1 I42M; p.I42M; source: HEK 293T, transfected, purified from conditioned medium (nickel-nitrilotriacetic acid cartridge); not shown: 10His, C-terminal, kept
In the case of B2, the Kd [11] is reported as 0.258 nM.

B3: SPINK1 variant K41N, C-terminal 10His tag (natural protein, human, UniProt P00995 24-79, looked up)
chain: B1 chain with K18N
notes: Its concentration was determined by SDS-PAGE and densitometry, not by active site titration; also called SPINK1 K41N; p.K41N; source: HEK 293T, transfected, purified from conditioned medium (nickel-nitrilotriacetic acid cartridge); not shown: 10His, C-terminal, kept
For B3, the Kd [12] was 1150 nM.

B4: SPINK1 variant N34S, C-terminal 10His tag (natural protein, human, UniProt P00995 24-79, looked up)
chain: B1 chain with N11S
notes: also called SPINK1 N34S; p.N34S; source: HEK 293T, transfected, purified from conditioned medium (nickel-nitrilotriacetic acid cartridge); not shown: 10His, C-terminal, kept
Binder B4 has a Kd [1] of 0.0167 nM, a Kd [2] of 0.0004 nM and a kon [3] of 3.1e+06 M⁻¹ s⁻¹. It also gave a kon [4] of 5.1e+06 M⁻¹ s⁻¹, a Kd [5] of 0.0008 nM and a Kd [6] of 0.0063 nM. For the same binder, the koff [7] was 1.36e-05 s⁻¹, the koff [8] was 4e-07 s⁻¹ and the Kd [9] was 0.0044 nM. The Kd [10] was 0.0001 nM.

B5: SPINK1 variant N37S, C-terminal 10His tag (natural protein, human, UniProt P00995 24-79, looked up)
chain: B1 chain with N14S
notes: also called SPINK1 N37S; p.N37S; source: HEK 293T, transfected, purified from conditioned medium (nickel-nitrilotriacetic acid cartridge); not shown: 10His, C-terminal, kept
Work on B5 yielded a Kd [11] of 0.0214 nM.

B6: SPINK1 variant P55S, C-terminal 10His tag (natural protein, human, UniProt P00995 24-79, looked up)
chain: B1 chain with P32S
notes: also called SPINK1 P55S; p.P55S; source: HEK 293T, transfected, purified from conditioned medium (nickel-nitrilotriacetic acid cartridge); not shown: 10His, C-terminal, kept
Work on B6 yielded a Kd [11] of 0.123 nM.

B7: SPINK1 variant Q68R, C-terminal 10His tag (natural protein, human, UniProt P00995 24-79, looked up)
chain: B1 chain with Q45R
notes: also called SPINK1 Q68R; p.Q68R; source: HEK 293T, transfected, purified from conditioned medium (nickel-nitrilotriacetic acid cartridge); not shown: 10His, C-terminal, kept
B7 showed a Kd [11] of 0.027 nM.

B8: SPINK1 variant R65Q, C-terminal 10His tag (natural protein, human, UniProt P00995 24-79, looked up)
chain: B1 chain with R42Q
notes: also called SPINK1 R65Q; p.R65Q; source: HEK 293T, transfected, purified from conditioned medium (nickel-nitrilotriacetic acid cartridge); not shown: 10His, C-terminal, kept
Work on B8 yielded a Kd [11] of 0.006 nM.

B9: ecotin (natural protein)
chain: not shown
notes: source: E. coli BL21(DE3), overexpressed, purified from the periplasm
In the case of B9, the Kd [13] is reported as 0.0195 nM and the Kd [14] is reported as 0.0032 nM.
